These are literature values, as cited in paper PMC8844171 (Clinical Drug Investigation, 2022).

This data set concerns patients with distal MCA or ICA occlusion.

Where two headings read alike, the source gives them in different places.

B1: alteplase: standard thrombolytic treatment for AIS (protein, UniProt P00750 36-562, looked up)
Tissue-type plasminogen …: SYQVICRDEKTQMIYQQHQSWLRPVLRSNRVEYCWCNSGRAQCHSVPVKSCSEPRCFNGGTCQQALYFSDFVCQCPEGFAGKCCEIDTRATCYEDQGISYRGTWSTAESGAECTNWNSSALAQKPYSGRRPDAIRLGLGNHNYCRNPDRDSKPWCYVFKAGKYSSEFCSTPACSEGNSDCYFGNGSAYRGTHSLTESGASCLPWNSMILIGKVYTAQNPSAQALGLGKHNYCRNPDGDAKPWCHVLKNRRLTWEYCDVPSCSTCGLRQYSQPQFRIKGGLFADIASHPWQAAIFAKHRRSPGERFLCGGILISSCWILSAAHCFQERFPPHHLTVILGRTYRVVPGEEEQKFEVEKYIVHKEFDDDTYDNDIALLQLKSDSSRCAQESSVVRTVCLPPADLQLPDWTECELSGYGKHEALSPFYSERLKEAHVRLYPSSRCTSQHLLNRTVTDNMLCAGDTRSGGPQANLHDACQGDSGGPLVCLNDGRMTLVGIISWGLGCGQKDVPGVYTKVTNYLDWIRDNMRP
As for B1, the Recanalization rate reads like this: (patients with ICA occlusion) below 10%; (patients with distal MCA occlusion) “approximately 40%”.
